This is an account of results in patent US11278600B2, “Human alpha-galactosidase variants” (Codexis, Inc., priority 2014, dated 2022).

What all share (type): biochemical
A short description of data set [1]: HTP-analysis of yeast culture supernatants, no challenge (MUGal hydrolysis). Particulars: activity of the variant/activity of WT GLA (SEQ ID NO: 5), yeast supernatant. The essentials:
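Activity read as 4-methylumbelliferyl α-D-galactopyranoside hydrolysis: fluorescence (355/448 nm) after sodium carbonate stop, following 30-180 min at 37° C with 2 mM MUGal stock at pH 4.6–4.8. Enzyme source is unchallenged culture supernatant of INVSc1 yeast expressing GLA variants, grown 66-84 h at 30° C.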

Data set [2] is described as follows: HTP-analysis of supernatants pretreated with acid (MUGal hydrolysis). The settings on record: challenge at pH 4.2; activity of the variant/activity of WT GLA (SEQ ID NO: 5); yeast supernatant. In outline:
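GLA variants were secreted from INVSc1 yeast grown 66-84 h at 30° C. in SD-Ura with 2% glucose; supernatants were mixed with McIlvaine buffer pH 3.3-4.3 and held at 37° C. for 1-3 h. Residual activity on MUGal at pH 4.8 was then measured by fluorescence.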

The nature of data set [3]: HTP-analysis of supernatants pretreated with base (MUGal hydrolysis). Particulars: challenge at pH 7.1; activity of the variant/activity of WT GLA (SEQ ID NO: 5); yeast supernatant. In outline:
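GLA variants were secreted by transformed INVSc1 yeast grown 66-84 h at 30° C. Supernatants were exposed to neutral-to-basic buffers (pH 7.0-9.7) at 37° C for 1-18 h, then assayed with MUGal in acidic citrate/McIlvaine buffer, with fluorescence read after quenching.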

B1: 180 (protein)
chain: LDNGLARTPTMGWLHWERFMCNLDCQEEPDSCISEKLFMEMAELMVSEGWKDAGYEYLCIDDCWMAPQRDSEGRLQADPQRFPHGIRQLANYVHSKGLKLGIYADVGNKTCAGFPGSFGYYDIDAQTFADWGVDLLKFDGCYCDSLENLADGYKHMSLALNRTGRSIVYSCEWPLYMWPFQKPNYTEIRQYCNHWRNFADIDDSWKSIKSILDWTSFNQERIVDVAGPGGWNDPDMLVIGNFGLSWNQQVTQMALWAIMAAPLFMSNDLRHISPQAKALLQDKDVIAINQDPLGKQGYQLRQGDNFEVWERPLSGLAWAVAMINRQEIGGPRSYTIAVASLGKGVACNPACFITQLLPVKRKLGFYEWDSRLRSHINPTGTVLLQLENTMQMSKDLLL
modifications: Synthetic Polypeptide sequence of Variant No. 180 of mature Human GLA
Regarding B1, the “Relative Activity of GLA Variants After No Challenge (NC)” value in data set [1] is recorded as “++ (++ = >1.5 to 2.5 relative activity over WT GLA (SEQ ID NO: 5))”. Besides, the “Relative Activity of GLA Variants After Challenge at pH 4.2” value (“Relative Activity … at pH 4.2” below) in data set [2] is reported as “++ (++ = >1.5 to 2.5 relative activity over WT GLA (SEQ ID NO: 5))”. Besides, the “Relative Activity of GLA Variants After Challenge at pH 7.1” value (from here on “Relative Activity … at pH 7.1”) in data set [3] was “+++ (+++ = >2.5 relative activity over WT GLA (SEQ ID NO: 5))”.

B2: 183 (protein)
chain: LDNGLARTPTMGWLHWERFMCNLDCQEEPDSCISEKLFMEMAELMVSEGWKDAGYEYLCIDDCWMAPQRDSEGRLQADPQRFPHGIRQLANYVHSKGLKLGIYADVGNKTCAGFPGSFGYYDIDAQTFADWGIDLLKFDGCYCDSLENLADGYKHMSLALNRTGRSIVYSCEWPLYMWPFQKPNYTEIRQYCNHWRNFADIDDSWKSIKSILDWTSFNQERIVDVAGPGGWNDPDMLVIGNFGLSWNQQVTQMALWAIMAAPLFMSNDLRHISPQAKALLQDKDVIAINQDPLGKQGYQLRQGDNFEVWERPLSGLAWAVAMINRQEIGGPRSYTIAVASLGKGVACNPACFITQLLPVKRKLGFYEWTSRLRSHINPTGTVLLQLENTMQMSKDLLL
modifications: Synthetic Polypeptide sequence of Variant No. 183 of mature Human GLA
For B2, in data set [1], the “Relative Activity of GLA Variants After No Challenge (NC)” value is “+ (+ = 0.5 to 1.5 relative activity over WT GLA (SEQ ID NO: 5))”. In data set [2], the “Relative Activity … at pH 4.2” value is on record as “+ (+ = 0.5 to 1.5 relative activity over WT GLA (SEQ ID NO: 5))”. Besides, the “Relative Activity … at pH 7.1” value in data set [3] is on record as “+ (+ = 0.5 to 1.5 relative activity over WT GLA (SEQ ID NO: 5))”.

B3: 185 (protein)
chain: LDNGLARTPTMGWLHWERFMCNLDCQEEPDSCISEKLFMEMAELMVSEGWKDAGYEYLCIDDCWMAPQRDSEGRLQADPQRFPHGIRQLANYVHSKGLKLGIYADVGNKTCAGFPGSFGYYDIDAQTFADWGVDLLKFDGCYCDSLENLADGYKHMSLALNRTGRSILYSCEWPLYMWPFQKPNYTEIRQYCNHWRNFADIDDSWKSIKSILDWTSFNQERIVDVAGPGGWNDPDMLVIGNFGLSWNQQVTQMALWAIMAAPLFMSNDLRHISPQAKALLQDKDVIAINQDPLGKQGYQLRQGDNFEVWERPLSGLAWAVAMINRQEIGGPRSYTIAVASLGKGVACNPACFITQLLPVKRKLGFYEWTSRLRSHINPTGTVLLQLENTMQMSKDLLL
modifications: Synthetic Polypeptide sequence of Variant No. 185 of mature Human GLA
On to B3, for which the “Relative Activity of GLA Variants After No Challenge (NC)” value in data set [1] is “+ (+ = 0.5 to 1.5 relative activity over WT GLA (SEQ ID NO: 5))”. Moreover, the “Relative Activity … at pH 4.2” value in data set [2] was “++ (++ = >1.5 to 2.5 relative activity over WT GLA (SEQ ID NO: 5))”. Besides, the “Relative Activity … at pH 7.1” value in data set [3] is reported as “+ (+ = 0.5 to 1.5 relative activity over WT GLA (SEQ ID NO: 5))”.

B4: 184 (protein)
chain: LDNGLARTPTMGWLHWERFMCNLDCQEEPDSCISEKLFMEMAELMVSEGWKDAGYEYLCIDDCWMAPQRDSEGRLQADPQRFPHGIRQLANYVHSKGLKLGIYADVGNKTCAGFPGSFGYYDIDAQTFADWGVDLLKFDGCYCDSLENLADGYKHMSLALNRTGRSIAYSCEWPLYMWPFQKPNYTEIRQYCNHWRNFADIDDSWKSIKSILDWTSFNQERIVDVAGPGGWNDPDMLVIGNFGLSWNQQVTQMALWAIMAAPLFMSNDLRHISPQAKALLQDKDVIAINQDPLGKQGYQLRQGDNFEVWERPLSGLAWAVAMINRQEIGGPRSYTIAVASLGKGVACNPACFITQLLPVKRKLGFYEWTSRLRSHINPTGTVLLQLENTMQMSKDLLL
modifications: Synthetic Polypeptide sequence of Variant No. 184 of mature Human GLA
Take B4: the “Relative Activity of GLA Variants After No Challenge (NC)” value in data set [1] was “++ (++ = >1.5 to 2.5 relative activity over WT GLA (SEQ ID NO: 5))”. The “Relative Activity … at pH 4.2” value in data set [2] was “+ (+ = 0.5 to 1.5 relative activity over WT GLA (SEQ ID NO: 5))”. In addition, the “Relative Activity … at pH 7.1” value in data set [3] is recorded as “+ (+ = 0.5 to 1.5 relative activity over WT GLA (SEQ ID NO: 5))”.

B5: 187 (protein)
chain: LDNGLARTPTMGWLHWERFMCNLDCQEEPDSCISEKLFMEMAELMVSEGWKDAGYEYLCIDDCWMAPQRDSEGRLQADPQRFPHGIRQLANYVHSKGLKLGIYADVGNKTCAGFPGSFGYYDIDAQTFADWGVDLLKFDGCYCDSLENLADGYKHMSLALNRTGRSIVYSCEWPLYMWPFQKPNYTEIRQYCNHWRNFADIDDSWKSIKSILDWTSFNQERIVDVAGPGGWNDPDMLVIGNFGLSWNQQVTQMALWAIMAAPLFMSNDLRHISPQAKALLQDKDVIAINQDPLGKQGYQLRQGDNFEVWERPLSGLAWAVAMINRQEIGGPRSYTIAVASLGKGYACNPACFITQLLPVKRKLGFYEWTSRLRSHINPTGTVLLQLENTMQMSKDLLL
modifications: Synthetic Polypeptide sequence of Variant No. 187 of mature Human GLA
Consider B5, for which, in data set [1], the “Relative Activity of GLA Variants After No Challenge (NC)” value is “+ (+ = 0.5 to 1.5 relative activity over WT GLA (SEQ ID NO: 5))”. Further, the “Relative Activity … at pH 4.2” value in data set [2] is “+ (+ = 0.5 to 1.5 relative activity over WT GLA (SEQ ID NO: 5))”. Moreover, the “Relative Activity … at pH 7.1” value in data set [3] is “+ (+ = 0.5 to 1.5 relative activity over WT GLA (SEQ ID NO: 5))”.

B6: 181 (protein)
chain: LDNGLARTPTMGWLHWERFMCNLDCQEEPDSCISEKLFMEMAELMVSEGWKDAGYEYLCIDDCWMAPQRDSEGRLQADPQRFPHGIRQLANYVHSKGLKLGIYADVGNKTCAGFPGSFGYYDIDAQTFADWGVDLLKFDGCYCDSLENLADGYKHMSLALNRTGRSIVYSCEWPLYMWPFQKPNYTEIRQYCNHWRNFADIDDSWKSIKSILDWTSFNQERIVDVAGPGGWNDPDMLVIGNFGLSWNQQVTQMALWAIMAAPLFMSNDLRHISPQAKALLQDKDVIAINQDPLGKQGYQLRQGDNFEVWERPLSGLAWAVAMINRQEIGGPRSYTIAVASLGKGVACNPACFITQLLPVKRKLGFYEWSSRLRSHINPTGTVLLQLENTMQMSKDLLL
modifications: Synthetic Polypeptide sequence of Variant No. 181 of mature Human GLA
Take B6: the “Relative Activity of GLA Variants After No Challenge (NC)” value in data set [1] is reported as “+ (+ = 0.5 to 1.5 relative activity over WT GLA (SEQ ID NO: 5))”. Besides, the “Relative Activity … at pH 4.2” value in data set [2] is on record as “+ (+ = 0.5 to 1.5 relative activity over WT GLA (SEQ ID NO: 5))”. In addition, the “Relative Activity … at pH 7.1” value in data set [3] is on record as “+ (+ = 0.5 to 1.5 relative activity over WT GLA (SEQ ID NO: 5))”.

B7: 186 (protein)
chain: LDNGLARTPTMGWLHWERFMCNLDCQEEPDSCISEKLFMEMAELMVSEGWKDAGYEYLCIDDCWMAPQRDSEGRLQADPQRFPHGIRQLANYVHSKGLKLGIYADVGNKTCAGFPGSFGYYDIDAQTFADWGVDLLKFDGCYCDSLENLADGYKHMSLALNRTGRSIVYSCEWPLYMWPFQKPNYTEIRQYCNHWRNFADIDDSWKSIKSILDWTSFNQERIVDVAGPGGWNDPDMLVIGNFGLSWNQQVTQMALWAIMAAPLFMSNDLRHISPQAKALLQDKDVIAINQDPLGKQGYQLRQGDNFEVWERPLSGLAWAVAMINRQEIGGPRSYTIAVASLGKGNACNPACFITQLLPVKRKLGFYEWTSRLRSHINPTGTVLLQLENTMQMSKDLLL
modifications: Synthetic Polypeptide sequence of Variant No. 186 of mature Human GLA
On to B7, for which the “Relative Activity of GLA Variants After No Challenge (NC)” value in data set [1] is reported as “++ (++ = >1.5 to 2.5 relative activity over WT GLA (SEQ ID NO: 5))”. Besides, the “Relative Activity … at pH 4.2” value in data set [2] is “++ (++ = >1.5 to 2.5 relative activity over WT GLA (SEQ ID NO: 5))”. Moreover, in data set [3], the “Relative Activity … at pH 7.1” value is “+++ (+++ = >2.5 relative activity over WT GLA (SEQ ID NO: 5))”.

B8: 182 (protein)
chain: LDNGLARTPTMGWLHWERFMCNLDCQEEPDSCISEKLFMEMAELMVSEGWKDAGYEYLCIDDCWMAPQRDSEGRLQADPQRFPHGIRQLANYVHSKGLKLGIYADVGNKTCAGFPGSFGYYDIDAQTFADWGVDLLKFDGCYCDSLENLADGYKHMSLALNRTGRSIVYSCEWPLYMWPFQKPNYTEIRQYCNHWRNFADIDDSWKSIKSILDWTSFNQERIVDVAGPGGWNDPDMLVIGNFGLSWNQQVTQMALWAIMAAPLFMSNDLRHISPQAKALLQDKDVIAINQDPLGKQGYQLRQGDNFEVWERPLSGLAWAVAMINRQEIGGPRSYTIAVASLGKGVACNPACFITQLLPVKRKLGFYEWTSRLRSHINPTGTVLLQLENSMQMSKDLLL
modifications: Synthetic Polypeptide sequence of Variant No. 182 of mature Human GLA
Regarding B8, the “Relative Activity of GLA Variants After No Challenge (NC)” value in data set [1] is reported as “++ (++ = >1.5 to 2.5 relative activity over WT GLA (SEQ ID NO: 5))”. Moreover, the “Relative Activity … at pH 4.2” value in data set [2] is “+ (+ = 0.5 to 1.5 relative activity over WT GLA (SEQ ID NO: 5))”. In data set [3], the “Relative Activity … at pH 7.1” value is “+ (+ = 0.5 to 1.5 relative activity over WT GLA (SEQ ID NO: 5))”.
